T1: LAG3 on cells (recombinant CHO cells expressing Lag3) (human, UniProt P18627 29-525)
T1 construct: The cell ELISA paragraphs say only 'Lag3'; also called CHO-LAG3; Lag3 cells
T1 sequence: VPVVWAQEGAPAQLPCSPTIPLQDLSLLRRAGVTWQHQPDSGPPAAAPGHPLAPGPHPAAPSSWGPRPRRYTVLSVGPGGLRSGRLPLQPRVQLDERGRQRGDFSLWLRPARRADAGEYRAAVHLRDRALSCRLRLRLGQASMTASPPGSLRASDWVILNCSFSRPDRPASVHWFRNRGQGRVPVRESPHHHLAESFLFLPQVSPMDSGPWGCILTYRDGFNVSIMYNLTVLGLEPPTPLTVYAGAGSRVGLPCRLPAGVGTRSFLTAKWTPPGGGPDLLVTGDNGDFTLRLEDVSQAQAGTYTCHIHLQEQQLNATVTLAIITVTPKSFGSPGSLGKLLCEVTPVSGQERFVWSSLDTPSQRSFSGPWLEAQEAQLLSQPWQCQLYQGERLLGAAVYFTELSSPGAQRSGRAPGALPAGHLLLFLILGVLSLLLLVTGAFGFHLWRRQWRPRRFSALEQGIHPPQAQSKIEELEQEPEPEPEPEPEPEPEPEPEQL

T2: biotinylated-Lag3 (UniProt P18627 23-450, limits assumed, biotinylated)
T2 construct: Probably a human LAG3 ECD construct; also called Lag3 (MHCII/ELISA)
T2 sequence (looked up): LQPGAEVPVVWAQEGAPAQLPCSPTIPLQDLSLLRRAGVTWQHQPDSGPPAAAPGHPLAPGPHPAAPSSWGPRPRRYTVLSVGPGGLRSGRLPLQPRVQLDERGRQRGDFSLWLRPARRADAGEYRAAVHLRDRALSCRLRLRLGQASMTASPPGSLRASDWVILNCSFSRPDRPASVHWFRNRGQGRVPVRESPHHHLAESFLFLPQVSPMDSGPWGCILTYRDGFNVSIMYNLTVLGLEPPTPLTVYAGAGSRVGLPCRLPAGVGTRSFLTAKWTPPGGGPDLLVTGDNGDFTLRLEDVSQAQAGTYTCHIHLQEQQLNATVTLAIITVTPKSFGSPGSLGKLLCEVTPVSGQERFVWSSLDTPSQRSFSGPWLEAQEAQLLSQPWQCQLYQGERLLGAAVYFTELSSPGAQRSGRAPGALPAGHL


Tests used:
[1] = biological target: T1, LAG3 on cells (recombinant CHO cells …); experiment: cell ELISA on recombinant CHO cells expressing Lag3 (rel. EC50)
[2] = biological target: T3, full-length human PD1 on cells (human, UniProt Q15116 25-288); experiment: cell ELISA on CHO-K1 cells expressing full-length human PD1 (rel. EC50)
T3 construct: also called CHO-PD1
T3 sequence (Q15116 25-288 limits assumed): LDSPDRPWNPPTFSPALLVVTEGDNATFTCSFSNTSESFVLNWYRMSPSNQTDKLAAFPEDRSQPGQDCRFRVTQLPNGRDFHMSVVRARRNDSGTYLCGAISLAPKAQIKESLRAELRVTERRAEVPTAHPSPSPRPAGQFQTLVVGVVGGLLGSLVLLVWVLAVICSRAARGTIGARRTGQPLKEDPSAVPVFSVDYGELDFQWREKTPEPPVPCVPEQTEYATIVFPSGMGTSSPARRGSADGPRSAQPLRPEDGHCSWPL
Procedure, shortened: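 Cells bound by test antibody were fixed with 0.05% glutaraldehyde for 10 min at RT, then detected with POD-conjugated anti-human H+L or anti-mouse secondary antibody for 1 h at RT. TMB development ran to OD 1.0-2.0, read at 370/492 nm.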

biotinylated-Lag3 = biological target: T2, biotinylated-Lag3; experiment: ELISA, inhibition of biotinylated-Lag3 binding to MHC-II on A375 cells (competitor MHC-II)
[3] = biological target: T4, biotinylated PD1-ECD-AviHis (human, UniProt Q15116 25-170, biotinylated); experiment: ELISA on coated biotinylated PD1-ECD-AviHis (rel. EC50)
T4 construct: also called huPD1; hu PD1; not shown: Avi-His tag
T4 sequence (Q15116 25-170): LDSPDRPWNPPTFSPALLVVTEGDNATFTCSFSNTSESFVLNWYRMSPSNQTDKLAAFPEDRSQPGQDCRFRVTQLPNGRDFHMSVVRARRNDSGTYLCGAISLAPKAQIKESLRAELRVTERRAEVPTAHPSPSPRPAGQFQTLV
Experimental: After washing (3×90 μl/well with PBST-buffer) 25 μl/well goat-anti-human H+L-POD (JIR, JIR109-036-098) was added in 1:5000 dilution and incubated at RT for 1 h on a shaker. After washing (3×90 μl/well with PBST-buffer) 25 μl/well of TMB substrate (Roche, 11835033001) was added and incubated until OD 2-3. Measurement took place at 370/492 nm.

EC50 [1] [pM]	EC50 [2] [pM]	IC50 (biotinylated-Lag3) [pM]	EC50 [3] [pM]	Binder
230	100	1110	70	PD1/LAG3 0927 (bispecific antibody, human IgG1, kappa, L234A L235A, 1+1 CrossMAb Vh-VL, knobs into holes, IgG1 PGLALA) heavy 1: not shown heavy 2: EVQLLESGGGLVQPGGSLRLSCAASGFIFDDYTMNWVRQAPGKGLEWVAVISWDGGGTYYTDSVKGRFTISRDDFKNTLYLQMNSLRAEDTAVYYCAKGLTDTTLYGSDYWGQGTLVTVSSASTKGPSVFPLAPSSKSTSGGTAALGCLVEDYFPEPVTVSWNSGALTSGVHTFPAVLQSSGLYSLSSVVTVPSSSLGTQTYICNVNHKPSNTKVDEKVEPKSCDKTHTCPPCPAPEAAGGPSVFLFPPKPKDTLMISRTPEVTCVVVDVSHEDPEVKFNWYVDGVEVHNAKTKPREEQYNSTYRVVSVLTVLHQDWLNGKEYKCKVSNKALGAPIEKTISKAKGQPREPQVCTLPPSRDELTKNQVSLSCAVKGFYPSDIAVEWESNGQPENNYKTTPPVLDSDGSFFLVSKLTVDKSRWQQGNVFSCSVMHEALHNHYTQKSLSLSPGK light 1: EVQLLESGGGLVQPGGSLRLSCAASGFSFSSYTMSWVRQAPGKGLEWVATISGGGRDIYYPDSVKGRFTISRDNSKNTLYLQMNSLRAEDTAVYYCVLLTGRVYFALDSWGQGTLVTVSSASVAAPSVFIFPPSDEQLKSGTASVVCLLNNFYPREAKVQWKVDNALQSGNSQESVTEQDSKDSTYSLSSTLTLSKADYEKHKVYACEVTHQGLSSPVTKSFNRGEC light 2: not shown
200	70	720	60	PD1/LAG3 0799 (bispecific antibody, human IgG1, kappa, L234A L235A, 1+1 CrossMAb Vh-VL, knobs into holes, IgG1 PGLALA) heavy 1: not shown heavy 2: EVQLVESGGGLVQPGGSLRLACAASGFTFSDYAMSWVRQAPGKGLEWVSGIDNSGYYTYYTDSVKGRFTISRDDVKNTLYLQMNSLRAEDTAVYLCTKTHSGLIVNDAFDIWGQGTMVTVSSASTKGPSVFPLAPSSKSTSGGTAALGCLVEDYFPEPVTVSWNSGALTSGVHTFPAVLQSSGLYSLSSVVTVPSSSLGTQTYICNVNHKPSNTKVDEKVEPKSCDKTHTCPPCPAPEAAGGPSVFLFPPKPKDTLMISRTPEVTCVVVDVSHEDPEVKFNWYVDGVEVHNAKTKPREEQYNSTYRVVSVLTVLHQDWLNGKEYKCKVSNKALGAPIEKTISKAKGQPREPQVCTLPPSRDELTKNQVSLSCAVKGFYPSDIAVEWESNGQPENNYKTTPPVLDSDGSFFLVSKLTVDKSRWQQGNVFSCSVMHEALHNHYTQKSLSLSPGK light 1: EVQLLESGGGLVQPGGSLRLSCAASGFSFSSYTMSWVRQAPGKGLEWVATISGGGRDIYYPDSVKGRFTISRDNSKNTLYLQMNSLRAEDTAVYYCVLLTGRVYFALDSWGQGTLVTVSSASVAAPSVFIFPPSDEQLKSGTASVVCLLNNFYPREAKVQWKVDNALQSGNSQESVTEQDSKDSTYSLSSTLTLSKADYEKHKVYACEVTHQGLSSPVTKSFNRGEC light 2: not shown
